For assay [1], the target named is Fluorescently labeled RECQL5_(1–620) (human) (UniProt O94762). Briefly: native gel or EMSA. A general note: A gel shift assay detects complexes by their altered migration in electrophoresis.
Assay [2] addresses RECQL5 KIX domain (RECQL5_(515–620)) (human) (UniProt O94762). Briefly: crystal structure.
For assay [3] the target is unchanged. Briefly: SAXS.

Sequence of Fluorescently labeled RECQL5_(1–620) (human) (O94762 1-620): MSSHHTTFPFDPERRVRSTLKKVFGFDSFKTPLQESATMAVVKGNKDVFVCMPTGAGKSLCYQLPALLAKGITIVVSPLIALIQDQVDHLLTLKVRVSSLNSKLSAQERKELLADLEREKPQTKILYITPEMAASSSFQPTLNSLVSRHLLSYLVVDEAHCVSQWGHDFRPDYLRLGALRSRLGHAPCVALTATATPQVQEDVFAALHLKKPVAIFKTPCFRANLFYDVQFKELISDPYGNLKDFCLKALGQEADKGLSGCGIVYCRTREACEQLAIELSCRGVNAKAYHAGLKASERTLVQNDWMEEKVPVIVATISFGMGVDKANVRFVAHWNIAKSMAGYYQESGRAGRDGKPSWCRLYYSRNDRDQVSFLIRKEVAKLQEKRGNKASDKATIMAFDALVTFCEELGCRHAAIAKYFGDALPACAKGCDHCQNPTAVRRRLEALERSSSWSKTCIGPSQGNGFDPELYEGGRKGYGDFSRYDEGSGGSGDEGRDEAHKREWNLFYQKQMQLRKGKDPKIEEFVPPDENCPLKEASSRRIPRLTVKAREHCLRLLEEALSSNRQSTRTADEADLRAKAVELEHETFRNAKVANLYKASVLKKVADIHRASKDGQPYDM

“human RNA polymerase II (from UniProt P24928;P30876) (complex)”: the Kd in assay [1] stood at 40 nM.
On to “RECQL5 KIX domain (RECQL5_(515–620)) (from UniProt O94762 515-620) (domain or fragment)”, for which the stoichiometry N in assay [2] and in assay [3] was 2 throughout.

Usually Kd stands for the constant that tells how readily two partners part at equilibrium. The low end stands for higher affinity, the high end for lower affinity. What is called stoichiometry N is a count of units in the complex or per binding partner.

The values are drawn from publication PMC3702667.
